From the supplement of paper PMC7125110
± gives the standard error. For part of these data: Variants at the floor of the assay were thinned out.

B1: glmS ribozyme (parent)
chain: AUAAAAGCGCCAGAACUACAGAAAUGUAGUUGACGAGGAGGAGGUUUAUCGAAUUUUCGGCGGAUGCCUCCAAA

Experiments:
Settings in all cases: with glucosamine-6-phosphate
glucosamine-6-phosphate [1] = variants of: B1; assay: self-cleavage kobs at 40 uM GlcN6P; higher = faster cleavage; RNA array
Summary of the method: (§1)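 In situ transcription by E. coli RNA polymerase produced barcoded ribozyme variants on sequenced MiSeq chips, and a hybridised Cy3 probe tracked them at 37 °C. Glucosamine-6-phosphate was flowed in at 40 μM to 10 mM in HEPES/KCl/Mg(OAc)2 buffer. kcat and KM were taken from weighted Michaelis–Menten fits of kobs values from exponential decay fits.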

glucosamine-6-phosphate [2] = variants of: B1; assay: self-cleavage kobs at 640 uM GlcN6P; higher = faster cleavage; RNA array
Summary of the method: as §1

glucosamine-6-phosphate [3] = variants of: B1; assay: self-cleavage kobs at 10000 uM GlcN6P; higher = faster cleavage; RNA array
Summary of the method: as §1

glucosamine-6-phosphate [4] = variants of: B1; assay: KM; higher = weaker cofactor use; RNA array
Summary of the method: as §1

glucosamine-6-phosphate [5] = variants of: B1; assay: kcat; higher = faster cleavage; RNA array
Summary of the method: as §1

glucosamine-6-phosphate [6] = variants of: B1; assay: self-cleavage kobs at 160 uM GlcN6P; higher = faster cleavage; RNA array
Summary of the method: as §1

glucosamine-6-phosphate [7] = variants of: B1; assay: self-cleavage kobs at 2500 uM GlcN6P; higher = faster cleavage; RNA array
Summary of the method: as §1

Row | Variant | self-cleavage kobs at 40 uM GlcN6P (glucosamine-6-phosphate [1]) [s⁻¹] | self-cleavage kobs at 640 uM GlcN6P (glucosamine-6-phosphate [2]) [s⁻¹] | self-cleavage kobs at 10000 uM GlcN6P (glucosamine-6-phosphate [3]) [s⁻¹] | KM (glucosamine-6-phosphate [4]) [µM] | kcat (glucosamine-6-phosphate [5]) [s⁻¹] | self-cleavage kobs at 160 uM GlcN6P (glucosamine-6-phosphate [6]) [s⁻¹] | self-cleavage kobs at 2500 uM GlcN6P (glucosamine-6-phosphate [7]) [s⁻¹]
1 | A6G G40C | < 1e-05 | < 1e-05 |  |  |  |  | 
2 | A6G C58A C67G | 0.000658 ± 0.00021 |  | 0.000123 ± 3.5e-05 |  |  |  | 
3 | A42C U56G |  |  |  | 4130 ± 120 |  |  | 
4 | A6C G51U U56A | < 1e-05 |  |  |  |  |  | 
5 | C68A C70U |  |  |  |  | 1.14e-05 ± 4.1e-06 |  | 
6 | C67U C68U |  | 7.85e-05 ± 9.1e-06 | 0.000107 ± 7.4e-06 | 293 ± 85 | 0.000115 ± 7.3e-06 | 3.97e-05 ± 8.6e-06 | 0.000124 ± 1.3e-05
7 | A1G | 0.00124 ± 0.00034 |  | 0.0405 ± 0.014 |  |  |  | 
8 | A1C | 0.00111 ± 0.00028 | 0.0192 ± 0.0042 | 0.0709 ± 0.033 |  |  | 0.00363 ± 0.00095 | 0.0128 ± 0.0042
9 | A6C C11G G29U C34G G51C | < 1e-05 |  |  |  |  |  | 
10 | A39G U55G | 0.0012 ± 0.00016 | 0.00499 ± 0.00097 | 0.0177 ± 0.0048 | 212 ± 100 |  | 0.00211 ± 0.0006 | 0.00613 ± 0.0016
11 | A6C G35U | < 1e-05 |  | < 1e-05 |  |  | < 1e-05 | < 1e-05
12 | A6G C8G A33G A48U C58U A64U C70A | 3.84e-05 ± 1.7e-05 |  | 0.000104 ± 3e-05 |  |  |  | 
13 | G66C C67G |  | 2.84e-05 ± 1.3e-05 |  |  | 2.61e-05 ± 7.8e-06 |  | 
14 | G44C C50A |  |  |  | 105 ± 18 |  |  | 
15 | C67U C71U | 6.24e-05 ± 6.8e-06 | 0.000403 ± 3.1e-05 | 0.00213 ± 0.00029 |  | 0.00245 ± 0.0012 | 0.000128 ± 1.6e-05 | 0.00121 ± 0.00026
16 | G66U U69G |  | 5.52e-05 ± 2.5e-05 |  |  | 3.26e-05 ± 1.2e-05 |  | 4.9e-05 ± 2.2e-05
17 | U69A C71A |  |  |  |  | 2.44e-05 ± 5.9e-06 |  | 
18 | A6C G63C | < 1e-05 | < 1e-05 | < 1e-05 |  |  |  | 
19 | A6G C10G U31G U55A | < 1e-05 |  |  |  |  |  | 
20 | A6C A36U G37C G60U | < 1e-05 |  |  |  |  |  | 
21 | A6G A36C G51A | < 1e-05 |  | < 1e-05 |  |  |  | < 1e-05
22 | A6G U30G U54A C67G | < 1e-05 |  | < 1e-05 |  |  |  | 
23 | A6C C8U C68A C70A | < 1e-05 |  |  |  |  |  | 

Row | Variant | self-cleavage kobs at 40 uM GlcN6P (glucosamine-6-phosphate [1]) [s⁻¹] | self-cleavage kobs at 640 uM GlcN6P (glucosamine-6-phosphate [2]) [s⁻¹] | self-cleavage kobs at 10000 uM GlcN6P (glucosamine-6-phosphate [3]) [s⁻¹] | KM (glucosamine-6-phosphate [4]) [µM] | kcat (glucosamine-6-phosphate [5]) [s⁻¹] | self-cleavage kobs at 160 uM GlcN6P (glucosamine-6-phosphate [6]) [s⁻¹] | self-cleavage kobs at 2500 uM GlcN6P (glucosamine-6-phosphate [7]) [s⁻¹]
24 | A6G A33G A48G A64U | < 1e-05 |  | < 1e-05 |  |  |  | 
25 | U65A G66U |  | 7.65e-05 ± 9.6e-06 | 0.000342 ± 3.1e-05 | 3170 ± 620 | 0.00046 ± 4.8e-05 |  | 0.00023 ± 3.3e-05
26 | U65A G66C |  | 0.000156 ± 3.2e-05 | 0.000436 ± 8.9e-05 | 1400 ± 320 | 0.000476 ± 5.1e-05 |  | 0.000267 ± 8.2e-05
27 | A6G A14C C34A C68A | < 1e-05 |  |  |  |  |  | 
28 | A6C C8G | < 1e-05 | < 1e-05 | < 1e-05 |  |  |  | < 1e-05
29 | A6G G41U C50G | < 1e-05 |  | < 1e-05 |  |  |  | < 1e-05
30 | U65C C67G |  | 5.5e-05 ± 1.4e-05 | 6.72e-05 ± 8.1e-06 |  | 6.8e-05 ± 3.8e-06 |  | 
31 | A6G C50A C70U | < 1e-05 |  |  |  |  |  | 
32 | A6C G7C | < 1e-05 | < 1e-05 | < 1e-05 |  |  | < 1e-05 | < 1e-05
33 | A6C C16A G29A G63C C67A | < 1e-05 |  |  |  |  |  | 
34 | C67G C70A | < 1e-05 | < 1e-05 | < 1e-05 |  | < 1e-05 |  | 
35 | U65C | 2.21e-05 ± 2.1e-06 | 0.000238 ± 5.5e-06 | 0.000705 ± 1.6e-05 | 1690 ± 310 | 0.000875 ± 9.1e-05 | 6.95e-05 ± 2.6e-06 | 0.000626 ± 1.6e-05
36 | U65G | 5.85e-05 ± 1.3e-06 | 0.000813 ± 1.9e-05 | 0.00393 ± 7.2e-05 | 3670 ± 190 | 0.00543 ± 0.0002 | 0.000217 ± 7.2e-06 | 0.00237 ± 8.3e-05
37 | A6G G32C C34G C71U | < 1e-05 | < 1e-05 |  |  |  | < 1e-05 | 
38 | A6C A52C | < 1e-05 | < 1e-05 | < 1e-05 |  |  | < 1e-05 | < 1e-05
39 | A6C G40U | < 1e-05 | < 1e-05 |  |  |  | < 1e-05 | 
40 | G66C C71A |  |  | 0.000132 ± 2.2e-05 |  | 0.000163 ± 2.2e-05 |  | 0.000143 ± 1.5e-05
41 | A6C G13U A53U | < 1e-05 |  | < 1e-05 |  |  |  | 
42 | A6G A36U C50U | < 1e-05 | < 1e-05 | < 1e-05 |  |  |  | 
43 | A6C G13U C58A A64C | < 1e-05 | < 1e-05 |  |  |  | < 1e-05 | < 1e-05
44 | A6G C10U A39U | < 1e-05 |  | < 1e-05 |  |  | < 1e-05 | < 1e-05
45 | A6G A48C | < 1e-05 | < 1e-05 | < 1e-05 |  |  |  | 
